The source of these data is paper PMC10027685, “Frozen fresh blood plasma preserves the functionality of native human α2-macroglobulin” (Scientific Reports, 2023).

The term stoichiometry N denotes the number of molecules, sites or subunits per partner or assembly.

This series concerns the molecule itself. The series can be described thus: SEC-MALS; Superose 6 10/300 Increase column, buffer C (20 mM Tris–HCl, 150 mM sodium chloride, pH 7.4), 25 °C; native and MA-treated hα2M from FR and NF plasma. In general terms: Size exclusion chromatography separates by hydrodynamic size, large species first.

B1: native human α2-macroglobulin (natural protein, UniProt P01023 24-1474, looked up)
chain: SVSGKPQYMVLVPSLLHTETTEKGCVLLSYLNETVTVSASLESVRGNRSLFTDLEAENDVLHCVAFAVPKSSSNEEVMFLTVQVKGPTQEFKKRTTVMVKNEDSLVFVQTDKSIYKPGQTVKFRVVSMDENFHPLNELIPLVYIQDPKGNRIAQWQSFQLEGGLKQFSFPLSSEPFQGSYKVVVQKKSGGRTEHPFTVEEFVLPKFEVQVTVPKIITILEEEMNVSVCGLYTYGKPVPGHVTVSICRKYSDASDCHGEDSQAFCEKFSGQLNSHGCFYQQVKTKVFQLKRKEYEMKLHTEAQIQEEGTVVELTGRQSSEITRTITKLSFVKVDSHFRQGIPFFGQVRLVDGKGVPIPNKVIFIRGNEANYYSNATTDEHGLVQFSINTTNVMGTSLTVRVNYKDRSPCYGYQWVSEEHEEAHHTAYLVFSPSKSFVHLEPMSHELPCGHTQTVQAHYILNGGTLLGLKKLSFYYLIMAKGGIVRTGTHGLLVKQEDMKGHFSISIPVKSDIAPVARLLIYAVLPTGDVIGDSAKYDVENCLANKVDLSFSPSQSLPASHAHLRVTAAPQSVCALRAVDQSVLLMKPDAELSASSVYNLLPEKDLTGFPGPLNDQDNEDCINRHNVYINGITYTPVSSTNEKDMYSFLEDMGLKAFTNSKIRKPKMCPQLQQYEMHGPEGLRVGFYESDVMGRGHARLVHVEEPHTETVRKYFPETWIWDLVVVNSAGVAEVGVTVPDTITEWKAGAFCLSEDAGLGISSTASLRAFQPFFVELTMPYSVIRGEAFTLKATVLNYLPKCIRVSVQLEASPAFLAVPVEKEQAPHCICANGRQTVSWAVTPKSLGNVNFTVSAEALESQELCGTEVPSVPEHGRKDTVIKPLLVEPEGLEKETTFNSLLCPSGGEVSEELSLKLPPNVVEESARASVSVLGDILGSAMQNTQNLLQMPYGCGEQNMVLFAPNIYVLDYLNETQQLTPEIKSKAIGYLNTGYQRQLNYKHYDGSYSTFGERYGRNQGNTWLTAFVLKTFAQARAYIFIDEAHITQALIWLSQRQKDNGCFRSSGSLLNNAIKGGVEDEVTLSAYITIALLEIPLTVTHPVVRNALFCLESAWKTAQEGDHGSHVYTKALLAYAFALAGNQDKRKEVLKSLNEEAVKKDNSVHWERPQKPKAPVGHFYEPQAPSAEVEMTSYVLLAYLTAQPAPTSEDLTSATNIVKWITKQQNAQGGFSSTQDTVVALHALSKYGAATFTRTGKAAQVTIQSSGTFSSKFQVDNNNRLLLQQVSLPELPGEYSMKVTGEGCVYLQTSLKYNILPEKEEFPFALGVQTLPQTCDEPKAHTSFQISLSVSYTGSRSASNMAIVDVKMVSGFIPLKPTVKMLERSNHVSRTEVSSNHVLIYLDKVSNQTLSLFFTVLQDVPVRDLKPAIVKVYDYYETDEFAIAEYNAPCSKDLGNA
modifications: β-cysteinyl-γ-glutamyl thioester bond C972–Q975; glycosylated
notes: human α2-macroglobulin, secreted glycosylated 1451-residue protein; homotetramer, a dimer of disulfide-linked dimers; Authentic protein from the plasma of anonymous healthy donors; also called hα2M; native hα2M
As for B1, the “stoichiometry N” value was determined as 4.
